For the assay, the target named is T1, fluorescently labeled Qc-SNARE Vam7 (yeast, UniProt P32912 1-316, labeled with a fluorophore distinct from that of Qb).
T1 sequence: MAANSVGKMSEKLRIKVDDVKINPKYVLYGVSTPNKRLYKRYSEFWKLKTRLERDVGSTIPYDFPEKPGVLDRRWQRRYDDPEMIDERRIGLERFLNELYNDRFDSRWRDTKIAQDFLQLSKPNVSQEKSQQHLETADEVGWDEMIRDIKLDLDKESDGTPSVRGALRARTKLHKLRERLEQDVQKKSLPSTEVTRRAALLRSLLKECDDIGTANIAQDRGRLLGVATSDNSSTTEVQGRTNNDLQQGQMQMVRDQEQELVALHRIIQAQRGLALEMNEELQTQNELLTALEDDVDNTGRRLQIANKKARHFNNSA
The assay is described as follows: FRET or BRET. (In general: In BRET a luciferase serves as donor, and the signal depends on an acceptor being close.)

B1: fluorescent Qb-SNARE domain (cysteine-tagged synthetic SNARE domain of the Qb-SNARE Vti1) (domain or fragment)
chain: HAILQKSGDRLKDASRIANETEGIGSQIMMDLRSQRETLENARQTLFQADSYVDKSIKTLKTM
modifications: also: cysteine tag with fluorophore (Alexa-568), tag not in given chain
Take B1: the “fold faster FRET with sQa than without sQa” value is 100 fold.

These data come from article PMC8693972 (Molecular Biology of the Cell, 2021).
